Data taken from doi:10.1101/2020.09.04.283184 (bioRxiv, 2020).

Target: the molecule itself
Test: PORT-HS-AFM

B1: Chlamydomonas reinhardtii SAS-6[NL] homodimer (domain or fragment, UniProt A9CQL4 1-503, looked up)
chain: MPLLLDDGDPKAQTGFDLSTATTLFWRPVPVHVKQQDREDVLEELTFRILTGVAKQNHNLRILRIHISSDSDLFFLHTLEVSEEDFQSLKNDQGILVDFASFPGKIISLLEKCILAQPGDSPRFQAVLTIRGGESVFKIVEINDFKQLPHITLAFRPGNDSVVKQFLAFRLSEVKGTCHDLSDDLSRTRDDRDSMVAQLAQCRQQLAQLREQYDKHLLEVQAQAKTQQASAHEERIREKSQLKDQFEKERGEMEGRYRDQIAALNTRLGELDTENRKLREVKYELDTKVSELSHKLGSSEGSNRSLEEETARLRSLNQQLSSSKHELEIQLNEAKAKVLALDEKAQSQGDVIEQQRGRLRDMEAALRQTEQRCADLRDTLASAEGRAKEAQAEVLKGNQAIEKLTNDLRLAKEKTKRKAAIILRQEEELQEREQSLANATRDVGVLGQQAESLRKDVASLHSENDSLRSKLEDSKQQLQSNEQMIRWLNQQVTEAQLHASGAT
With B1 as the protein, how does the “stoichiometry N” value read?
Its value is 7 to 10 homodimers.
